Paper PMC9927474

Tested on: T1, GST-NolA (Bradyrhizobium guangxiense CCBAU53363), ORF:43be7f56
T1 sequence: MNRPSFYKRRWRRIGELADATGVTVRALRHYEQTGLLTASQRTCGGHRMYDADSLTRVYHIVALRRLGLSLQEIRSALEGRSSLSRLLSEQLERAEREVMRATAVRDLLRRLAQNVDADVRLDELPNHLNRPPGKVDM
Assay: EMSA
Details: EMSA: 10 uL, 1x binding buffer (composition, salt and pH not stated), 1 mg/mL BSA, 1 mg/mL salmon sperm DNA, 25 C, 30 min; 6% native PAGE in TB buffer (44.5 mM …)

TGTGAACCATAGGAGAGTGCTCATCATGTACGGTCGAATCAACAATTTTTCCGAGAACGAAACTTATTATCGGCAAGATGCGGAGCATTCGAATTGCGAAAGCCAAGACTTCGCGGACGCGTTCGCTAGAATGCAGTTGCAAGATTCGGCCGGCAG (double strand) [nopP promoter probe]
binding: no binding
